B1: TPR t1 (parent)
chain: GACCAAUCUGCCCUCAGAGCUCGAGAACAUCUUCGGAUGCAGAGGAGGCAGGCUUCGGUGGCGCGAUAGCGCCAACGUCCUCAACCUCCAAUGCAUCCCACCACAUGAUGAUGCCUGAAGAGCCUUGGUUUUUUG

Variants of: B1
Assay: polymerase ribozyme fitness, log enrichment relative to wild type (log ratio); higher = more active; in vitro selection for triplet polymerase activity
How it was run: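 A single round of triplicate in vitro selection, including frozen incubation at −7 °C, was applied to PCR-built, transcribed mutant libraries of each subunit of a heterodimeric triplet polymerase ribozyme. Illumina sequencing of input and output libraries retained genotypes with ≥10 input reads and ≥1 read per output. Fitness is the base-2 logarithm of genotype enrichment divided by wild-type enrichment, from inverse-variance-weighted replicate averages.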

Point of comparison: A74U A95U, “polymerase ribozyme fitness (log ratio)” value -0.222. Against it:
- G44U C72G G120C — lower, -0.514
- A90C U112A — lower, -1.21
- C15U G58C C72A C102G G107U A121C — lower, -6.59
- U112G G117U — lower, -1.25
- A66C G117A A119U — lower, -2.36
- U33A C72U — lower, -4.34
- A2U G65A C80G A84G C115U G117A G127U — lower, -5.92
- G48A C76U C85G C89A U96C — lower, -5.66
- C11U G35U G39U C56A G71U G122A — lower, -6.34
- G25C C53G — lower, -6.8
- G36C C40A C62U C72U — lower, -4.22
- C72U U78C C94U — lower, -0.922
- C12G A74U C80U — lower, -1.1
- C62A U132A — lower, -0.682
- A26U G127C — lower, -3.57
- U7G C11G C124U — higher, 1.49
- A5G C13G A37G — lower, -1.28
- C97U C104A — lower, -2.32
- A37G A50U C94U C104U G117C — lower, -5.89
- A5U G10A A37U U55G — lower, -0.809
- A91U G128A — lower, -3.34
- C64A U112G — lower, -6.64
- A16C U106A — lower, -2.82
- G47U G57A U106G U132A — lower, -4.76
- G58A C124A — higher, 2.39
- A29G U32C U106A — lower, -2.24
- G44C A95C — lower, -2.1
- C73U G107A A108G G120A C124A — lower, -3.12
- U7C G57U — higher, 0.0649
- G17U A105C U109A C124A — lower, -5.37
- G10A C22U G36A A43C C49G U92A C98A G120C U125G — lower, -7.92
- A5C A50C U96G — lower, -1.64
- C89U U133G — within 0.2 log units, -0.403
- C12U C72G U112C — higher, 1.25
- C12U G61U A105G — lower, -1.62
- G47U G135A — lower, -2.09
- U9G C80U C98U G110U — lower, -3.68
- C3A U9G G44A C62A C88G G113A C123G — lower, -4.87
- C40U G42A C56A C76G G93U C114G — lower, -4.34
- G77U A91U — lower, -2.18
- C11G G42U G45U G51C G120A U134G — lower, -4.64
- G69C U106A C124A G128A — lower, -1.94
- G44A C70A C89A — lower, -4.72
- U33G G48U G60A C97G G120A — lower, -7.27
- A29C G36U G69C G77A C97U A105U U106A — lower, -5.4
- G19A A43U C101A U129G — lower, -4.15
- C34A C70A — lower, -4.06
- C15U G52A G93A A95G — lower, -2.44
- C56U G69U C79A C101U — lower, -3.71
- U92A — lower, -2.8
- G69U A83U G127A — lower, -1.18
- A68G A90U — lower, -4.47
- C98A A100U U112A — lower, -5.91
- C15A G39A G69A U87G U112G — lower, -4.24
- C3U C20A A46G C72G G113U — within 0.2 log units, -0.27
- G45A C62U C115U U116C U126A G128C — lower, -5.86
- G44C C85U U92A C124U U133C — lower, -1.63
- C8G C15U G19A U125A — lower, -2.55
- C3U U7G A84U C101U G110U U125A — lower, -3.16
- A6U A37U G60U C82G C85G — lower, -2.29
- A26U A29G — lower, -4.77
- C70U C82A — lower, -1.09
- G36C G63U A83G U126G — lower, -5.42
- C12A C40A — lower, -2.34
- U7C G39A — lower, -0.619
- G25U A26G C64U — lower, -2.74
- A5G G47U A50C C62U A105C — lower, -6.17
- C40A G44A U92G A95U C115U — lower, -6.45
- C62G U87A — lower, -2.48
- A24G G128U — lower, -4.32
- A84G G93U U125G — lower, -2.63
- A27G G45A — lower, -2.35
- C3A C15A — lower, -3.67
- C8A C13U U55G G69A — lower, -2.21
- G39C C72U U129G — lower, -2.2
- C12G A43U U92G C104A G117U A118U — lower, -5.1
- C22A C86G C114U — lower, -5.23
- G57U G135U — within 0.2 log units, -0.352
- A84U G128C — lower, -2.56
- A37U G71U — lower, -0.54
- A37G C64U — lower, -0.479
- G77C C104A U116G G122A — lower, -5.01
- C86G U126C — lower, -1.74

Reference: the RNAGym collection of RNA variant scans (doi:10.1073/pnas.2313332121)
